Patent US8981056

Target: Aspergillus terreus LOVF Polyketide Synthase

B1: LovD G7 mutant (protein)
chain: MGSIIDAAAAAGPVVLMETAFRKAVESRQIPGAVIMARDASGNLNYTRCFGARTVRRDENNQLPPLQVDTPCRLASATKLLTTIMVLQCMERGLVDLDETVDRLLPDLSAMPVLEGFDDAGNARLRERRGKITLRHLLTHTSGLSYVFLHPLLREYMAQGYLQSAEKFGIQSRLAPPAVNDPGAEWIYGTNLDWAGKLVERATGLDLEQYLQENICAPLGITDMTFKLQQRPDMLARRADQTHRNSADGRLRYDDSVYFRADGEECFGGQGVFSSPGSYMKVLHSLLKRDGLLLQPQTVDLMFQPALEPRLEEQMNQHMDASPHINYGGPMPMFLRRSFGLGGIIALEDLDGENWRRKGSLTFGGGPNIVWQIDPKAGLCTLAFFQLEPWNDPVCRDLTRTFEHAIYAQYQQG
For B1, the “activities towards LovF (kinetic assay for LVA synthesis with LovF as acyl donor)” value was “The G7 mutant exhibited a 27-fold decrease in activities towards LovF compared to the G0 parent”.
